Data as given in PMC6255212, “Coupled molecular dynamics mediate long- and short-range epistasis between mutations that affect stability and aggregation kinetics” (Proceedings of the National Academy of Sciences of the …, 2018).

Substrate: O=CCO
Experiment: steady-state enzyme kinetics
Assay type: biochemical, Escherichia coli
Details: 50 mM Li-HPA (lithium beta-hydroxypyruvate, saturating), 4-80 mM glycolaldehyde

B1: Escherichia coli transketolase (TK) (Escherichia coli K-12; A282P/H192P/I365L) (protein)
chain: SSRKELANAIRALSMDAVQKAKSGHPGAPMGMADIAEVLWRDFLKHNPQNPSWADRDRFVLSNGHGSMLIYSLLHLTGYDLPMEELKNFRQLHSKTPGHPEVGYTAGVETTTGPLGQGIANAVGMAIAEKTLAAQFNRPGHDIVDHYTYAFMGDGCMMEGISHEVCSLAGTLKLGKLIAFYDDNGISIDGPVEGWFTDDTAMRFEAYGWHVIRDIDGHDAASIKRAVEEARAVTDKPSLLMCKTIIGFGSPNKAGTHDSHGAPLGDAEIALTREQLGWKYPPFEIPSEIYAQWDAKEAGQAKESAWNEKFAAYAKAYPQEAAEFTRRMKGEMPSDFDAKAKEFIAKLQANPAKIASRKASQNALEAFGPLLPEFLGGSADLAPSNLTLWSGSKAINEDAAGNYIHYGVREFGMTAIANGISLHGGFLPYTSTFLMFVEYARNAVRMAALMKQRQVMVYTHDSIGLGEDGPTHQPVEQVASLRVTPNMSTWRPCDQVESAVAWKYGVERQDGPTALILSRQNLAQQERTEEQLANIARGGYVLKDCAGQPELIFIATGSEVELAVAAYEKLTAEGVKARVVSMPSTDAFDKQDAAYRESVLPKAVTARVAVEAGIADYWYKYVGLNGAIVGMTTFGESAPAELLFEEFGFTVDNVVAKAKELL
notes: homodimer of 70- to 74-kDa monomers; holo enzyme with ThDP and Mg2+
B1 was tested, and the Km was 19.5(2.1) mM and the kcat was 68.9(2.6) s-1.

B2: Escherichia coli transketolase (TK) (Escherichia coli K-12; A282P/G506A/H192P) (protein)
chain: SSRKELANAIRALSMDAVQKAKSGHPGAPMGMADIAEVLWRDFLKHNPQNPSWADRDRFVLSNGHGSMLIYSLLHLTGYDLPMEELKNFRQLHSKTPGHPEVGYTAGVETTTGPLGQGIANAVGMAIAEKTLAAQFNRPGHDIVDHYTYAFMGDGCMMEGISHEVCSLAGTLKLGKLIAFYDDNGISIDGPVEGWFTDDTAMRFEAYGWHVIRDIDGHDAASIKRAVEEARAVTDKPSLLMCKTIIGFGSPNKAGTHDSHGAPLGDAEIALTREQLGWKYPPFEIPSEIYAQWDAKEAGQAKESAWNEKFAAYAKAYPQEAAEFTRRMKGEMPSDFDAKAKEFIAKLQANPAKIASRKASQNAIEAFGPLLPEFLGGSADLAPSNLTLWSGSKAINEDAAGNYIHYGVREFGMTAIANGISLHGGFLPYTSTFLMFVEYARNAVRMAALMKQRQVMVYTHDSIGLGEDGPTHQPVEQVASLRVTPNMSTWRPCDQVESAVAWKYAVERQDGPTALILSRQNLAQQERTEEQLANIARGGYVLKDCAGQPELIFIATGSEVELAVAAYEKLTAEGVKARVVSMPSTDAFDKQDAAYRESVLPKAVTARVAVEAGIADYWYKYVGLNGAIVGMTTFGESAPAELLFEEFGFTVDNVVAKAKELL
notes: as for B1
For B2, the Km was 20.2(1.5) mM and the kcat was 54.3(1.4) s-1.

B3: Escherichia coli transketolase (TK) (Escherichia coli K-12; A282P/G506A/H192P/I365L) (protein)
chain: SSRKELANAIRALSMDAVQKAKSGHPGAPMGMADIAEVLWRDFLKHNPQNPSWADRDRFVLSNGHGSMLIYSLLHLTGYDLPMEELKNFRQLHSKTPGHPEVGYTAGVETTTGPLGQGIANAVGMAIAEKTLAAQFNRPGHDIVDHYTYAFMGDGCMMEGISHEVCSLAGTLKLGKLIAFYDDNGISIDGPVEGWFTDDTAMRFEAYGWHVIRDIDGHDAASIKRAVEEARAVTDKPSLLMCKTIIGFGSPNKAGTHDSHGAPLGDAEIALTREQLGWKYPPFEIPSEIYAQWDAKEAGQAKESAWNEKFAAYAKAYPQEAAEFTRRMKGEMPSDFDAKAKEFIAKLQANPAKIASRKASQNALEAFGPLLPEFLGGSADLAPSNLTLWSGSKAINEDAAGNYIHYGVREFGMTAIANGISLHGGFLPYTSTFLMFVEYARNAVRMAALMKQRQVMVYTHDSIGLGEDGPTHQPVEQVASLRVTPNMSTWRPCDQVESAVAWKYAVERQDGPTALILSRQNLAQQERTEEQLANIARGGYVLKDCAGQPELIFIATGSEVELAVAAYEKLTAEGVKARVVSMPSTDAFDKQDAAYRESVLPKAVTARVAVEAGIADYWYKYVGLNGAIVGMTTFGESAPAELLFEEFGFTVDNVVAKAKELL
notes: as for B1
B3 was tested, and the Km was 22.7(2.2) mM and the kcat was 58.3(2.1) s-1.
